Patent publication EP3069729A1 (Sequoia Sciences, Inc., dated 2016)

Molecular target: T1, horseradish peroxidase (HRP) (UniProt P00433 31-338)
T1 sequence: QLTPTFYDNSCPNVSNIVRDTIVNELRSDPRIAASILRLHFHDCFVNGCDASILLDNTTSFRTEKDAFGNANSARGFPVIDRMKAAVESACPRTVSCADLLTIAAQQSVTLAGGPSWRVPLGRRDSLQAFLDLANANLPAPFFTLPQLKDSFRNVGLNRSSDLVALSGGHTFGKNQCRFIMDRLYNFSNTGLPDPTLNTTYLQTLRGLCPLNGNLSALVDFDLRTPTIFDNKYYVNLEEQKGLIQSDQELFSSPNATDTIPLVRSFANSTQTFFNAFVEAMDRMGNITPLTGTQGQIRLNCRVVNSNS
Assay: in vitro mannose binding potency assay; inferred from the Q133K FimCH complex

B1: FimC (other)
chain: GVALGATRVIYPAGQKQVQLAVTNNDENSTYLIQSWVENADGVKDGRFIVTPPLFAMKGKKENTLRILDATNNQLPQDRESLFWMNVKAIPSMDKSKLTENTLQLAIISRIKLYYRPAKLALPPDQAAEKLRFRRSANSLTLINPTPYYLTVTELNAGTRVLENALVPPMGESAVKLPSDAGSNITYRTINDYGALTPKMTGVME
notes: also called FimC protein
B1: no binding.
